Our source for the koff values is US20150037348A1 (AbbVie / Abbott, published 2015).

To fix the notation:
T1: human IL-12 (human, UniProt P29459 23-219; P29460 23-328)
T1 construct: recombinant human IL-12 heterodimer (p35/p40, disulfide-linked); also called hIL-12; rhIL-12
T1 sequence (looked up) 1: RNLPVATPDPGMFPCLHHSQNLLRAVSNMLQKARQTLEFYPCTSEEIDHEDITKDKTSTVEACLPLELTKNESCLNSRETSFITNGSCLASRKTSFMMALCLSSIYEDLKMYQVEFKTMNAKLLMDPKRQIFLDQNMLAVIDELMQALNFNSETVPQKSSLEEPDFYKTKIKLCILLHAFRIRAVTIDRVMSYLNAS
T1 sequence (looked up) 2: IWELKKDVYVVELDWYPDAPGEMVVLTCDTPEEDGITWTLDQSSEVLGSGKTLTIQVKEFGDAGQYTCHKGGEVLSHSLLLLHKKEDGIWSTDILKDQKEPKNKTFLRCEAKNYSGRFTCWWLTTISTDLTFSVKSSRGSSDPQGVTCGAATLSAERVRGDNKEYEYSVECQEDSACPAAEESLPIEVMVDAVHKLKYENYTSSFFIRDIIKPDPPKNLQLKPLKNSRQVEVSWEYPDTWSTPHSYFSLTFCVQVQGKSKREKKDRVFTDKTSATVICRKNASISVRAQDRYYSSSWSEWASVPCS

B1: 31-A6 (scFv, V domains shown)
VH: QVQLVQSGGGVVQPGRSLRLSCAASGFTFSSYGMHWVRQAPGKGLEWVAFIRYDGSNKYYADSVKGRFTISRDNSKNTLYLQMKSLRAEDTAVYYCKTHGSHDNWGQGTMVTVSS
VL: SYVLTQPPSVSGTPGQRVTISCSGGRSNIGSNTVKWYQQLPGTAPKLLIYGNDQRPSGVPDRFSGSKSGTSASLAITGVQAEDEADYYCQSYDRGTHPNLNFGTGTKVTVL
notes: scFv
B2: 70-7 (scFv, V domains shown)
VH: B1 VH with K97T, H99R, G100R, S101R, H102S, D103N, N104Y
VL: B1 VL with R94S, G95S, T96L, H97R, P98G, N99S, L100R, N101V
notes: scFv
B3: A4 (scFv, V domains shown)
VH: B1 VH
VL: B1 VL with T96R, H97N, N99A, N101T
notes: scFv
B4: B2 (scFv, V domains shown)
VH: B1 VH
VL: B1 VL with T96R, H97P, P98R, N99H, L100A, N101L
notes: scFv
B5: 144-F1 (scFv, V domains shown)
VH: B1 VH
VL: B1 VL with T96H, P98Y, N99T, L100T, N101F
notes: scFv
B6: 177-C6 (scFv, V domains shown)
VH: B1 VH
VL: B1 VL with N99V, L100P, N101A
notes: scFv
B7: 156-6 (scFv, V domains shown)
VH: B1 VH with K97T
VL: B1 VL with G95D, T96F, H97T, P98G, N99S, L100R, N101V
notes: scFv
B8: A6 (scFv, V domains shown)
VH: B1 VH
VL: B1 VL with N99W, N101H
notes: scFv
B9: B5 (scFv, V domains shown)
VH: B1 VH
VL: B1 VL with T96Q, H97P, P98H, N99A, L100V, N101L
notes: scFv
B10: 101-9 (scFv, V domains shown)
VH: B1 VH with K97T, H102Y, N104Y
VL: B1 VL with R94S, G95S, T96L, H97T, P98G, N99S, L100R, N101V
notes: scFv
B11: 70-2 (scFv, V domains shown)
VH: B1 VH with K97T, H102Y, N104Y
VL: B1 VL with R94S, G95S, T96L, H97R, P98G, N99S, L100R, N101V
notes: scFv
B12: A7 (scFv, V domains shown)
VH: B1 VH
VL: B1 VL with T96H, H97N, P98N, N99F, L100S, N101P
notes: scFv
B13: 170-1 (scFv, V domains shown)
VH: B1 VH with K97T, H99S, H102Y, N104Y
VL: B1 VL with T96F, H97T, P98G, N99F, L100K, N101V
notes: scFv
B14: A5 (scFv, V domains shown)
VH: B1 VH
VL: B1 VL with N99S, L100M, N101L
notes: scFv
B15: A12 (scFv, V domains shown)
VH: B1 VH
VL: B1 VL with H97T, N99R, L100P, N101M
notes: scFv
B16: 170-21 (scFv, V domains shown)
VH: B1 VH with K97T, H102Q
VL: B1 VL with T96F, H97T, P98G, N99P, L100R, N101L
notes: scFv
B17: 101-4 (scFv, V domains shown)
VH: B1 VH with K97T, H99S, H102I, N104Y
VL: B1 VL with R94S, G95S, T96L, H97T, P98G, N99S, L100R, N101V
notes: scFv
B18: A9 (scFv, V domains shown)
VH: B1 VH
VL: B1 VL with T96P, H97A, P98R, N99T, L100S, N101P
notes: scFv
B19: 70-13 (scFv, V domains shown)
VH: B1 VH with K97T, H99S, H102I, N104Y
VL: B1 VL with R94S, G95S, T96L, H97R, P98G, N99S, L100R, N101V
notes: scFv
B20: 101-5 (scFv, V domains shown)
VH: B1 VH with K97T, H99S, H102I, N104Y
VL: B1 VL with R94S, G95S, T96L, H97T, P98G, N99S, L100R, N101V
notes: scFv
B21: 43-G3 (scFv, V domains shown)
VH: B1 VH
VL: B1 VL with T96I, H97W
notes: scFv
B22: 156-17 (scFv, V domains shown)
VH: B1 VH with K97T
VL: B1 VL with R94S, G95S, T96L, H97W, P98G, N99T, L100R, N101V
notes: scFv
B23: B3 (scFv, V domains shown)
VH: B1 VH
VL: B1 VL with H97P, P98S, N99Y, L100P, N101T
notes: scFv
B24: A11 (scFv, V domains shown)
VH: B1 VH
VL: B1 VL with H97F, N99S, L100P, N101Q
notes: scFv
B25: 177-H10 (scFv, V domains shown)
VH: B1 VH
VL: B1 VL with N99T, L100M, N101Y
notes: scFv
B26: 177-G6 (scFv, V domains shown)
VH: B1 VH
VL: B1 VL with N99T, L100M, N101I
notes: scFv
B27: 170-11 (scFv, V domains shown)
VH: B1 VH with K97T, H99S, H102Y, N104Y
VL: B1 VL with T96L, H97T, P98G, N99F, L100R, N101V
notes: scFv
B28: 170-19 (scFv, V domains shown)
VH: B1 VH with K97T
VL: B1 VL with T96F, H97T, P98D, N99Y, L100K, N101V
notes: scFv
B29: A10 (scFv, V domains shown)
VH: B1 VH
VL: B1 VL with T96N, H97S, N99A, L100T, N101V
notes: scFv
B30: A3 (scFv, V domains shown)
VH: B1 VH
VL: B1 VL with T96Y, H97P, P98R, L100I, N101L
notes: scFv
B31: 170-35 (scFv, V domains shown)
VH: B1 VH with K97A, H102Q
VL: B1 VL with T96F, H97T, P98G, N99S, L100R, N101V
notes: scFv
B32: 31-B5 (scFv, V domains shown)
VH: B1 VH
VL: B1 VL with N99S, L100I, N101S
notes: scFv
B33: 101-14 (scFv, V domains shown)
VH: B1 VH with K97T, H102Y, N104Y
VL: B1 VL with T96F, H97T, P98G, N99S, L100R, N101V
notes: scFv
B34: 103-1 (scFv, V domains shown)
VH: B1 VH with K97T, H99Q, S101R
VL: B1 VL with T96F, H97T, P98G, N99S, L100R, N101V
notes: scFv
B35: 156-3 (scFv, V domains shown)
VH: B1 VH with K97T, N104T
VL: B1 VL with R94N, T96F, H97T, P98G, N99A, L100R, N101V
notes: scFv
B36: 170-15 (scFv, V domains shown)
VH: B1 VH with K97T, H99S, H102Y, N104Y
VL: B1 VL with T96L, H97T, P98G, N99Y, L100R, N101L
notes: scFv
B37: A1 (scFv, V domains shown)
VH: B1 VH
VL: B1 VL with T96L, H97P, P98R, N99L, L100T, N101H
notes: scFv
B38: 156-1 (scFv, V domains shown)
VH: B1 VH with K97T, N104T
VL: B1 VL with G95D, T96F, H97T, P98G, N99S, L100R, N101V
notes: scFv
B39: 43-G2 (scFv, V domains shown)
VH: B1 VH
VL: B1 VL with T96S, H97S, N99A, L100I, N101M
notes: scFv
B40: B7 (scFv, V domains shown)
VH: B1 VH
VL: B1 VL with T96D, H97S, P98N, N99H, L100D, N101L
notes: scFv
B41: A2 (scFv, V domains shown)
VH: B1 VH
VL: B1 VL with T96P, H97Y, P98H, N99P, L100I, N101R
notes: scFv

Changes are numbered by the printed parent chain.

The assay concerns the target T1, human IL-12. Kind of assay: SPR (BIAcore), IL-12 chip. From the text: The system utilizes the optical properties of SPR to detect alterations in protein concentrations within a dextran biosensor matrix. Proteins are covalently bound to the dextran matrix at known concentrations. […] To determine the off rate (koff), on rate (kₒₙ), association rate (Ka) and dissociation rate (Kd) constants, BIAcore kinetic evaluation software (version 2.1) was used.
Regarding B1, the koff was found to be 0.0005 s⁻¹.
The same measure for B2: 0.129 s⁻¹; for B3: 0.00147 s⁻¹.
As for B4, the off-rate constant (koff) turned out to be 0.00361 s⁻¹. Against the preceding molecule, the koff is about 2.5-fold higher.
Regarding B5, the koff amounted to 0.00058 s⁻¹.
As for B6, the koff stood at 0.000794 s⁻¹.
The same measure for B7: 0.003 s⁻¹; for B8: 0.00187 s⁻¹.
Regarding B9, the koff came to 0.00304 s⁻¹.
B10 yielded a koff of 0.00854 s⁻¹.
As for B11, the koff came out at 0.033 s⁻¹.
B12: the koff is 0.00395 s⁻¹. This koff is about 8.4-fold lower than that of the molecule before.
Molecule B13 displayed a koff of 0.00235 s⁻¹.
B14 came in with a koff of 0.00112 s⁻¹.
The molecule B15 came in with a koff of 0.00143 s⁻¹. This koff and that of the molecule before are within 1.5-fold of each other.
As for B16, the koff came to 0.00369 s⁻¹.
In the case of B17, the koff came to 0.00976 s⁻¹.
In the case of B18, the koff is 0.00798 s⁻¹.
B19 yielded a koff of 0.072 s⁻¹.
As to B20, the koff is 0.0445 s⁻¹.
Molecule B21 gave a koff of 0.0009 s⁻¹. Compared with the last molecule, the koff is about 49-fold lower.
Take B22: the dissociation rate constant (koff) amounted to 0.006 s⁻¹. Against the preceding molecule, the koff is about 6.7-fold higher.
The result for B23 reads 0.00412 s⁻¹; that for B24, 0.00207 s⁻¹.
The same measure for B25: 0.00344 s⁻¹; for B26: 0.00055 s⁻¹; for B27: 0.00044 s⁻¹.
In turn, B28 registered an off-rate (koff) of 0.001 s⁻¹.
The result for B29 reads 0.00187 s⁻¹; that for B30, 0.00251 s⁻¹; that for B31, 1e-05 s⁻¹.
Molecule B32 registered a koff of 0.0005 s⁻¹.
The result for B33 reads 0.00752 s⁻¹; that for B34, 0.0029 s⁻¹; that for B35, 0.009 s⁻¹.
As to B36, the off-rate (koff) was 0.00443 s⁻¹.
The result for B37 reads 0.00566 s⁻¹.
The result for B38 reads 0.005 s⁻¹; that for B39, 0.0007 s⁻¹.
For B40, the koff was determined as 0.00545 s⁻¹.
The result for B41 reads 0.0038 s⁻¹.
